According to paper PMC7583315, “Disruptive natural selection by male reproductive potential prevents underexpression of protein-coding genes on the human Y chromosome as a self-domestication syndrome”:

B1: SHOX -45A (rs1452787381 WT) (dsDNA)
DNA 1: GAGGTCGCCGCGTATAAATAGTGAGA
DNA 2: TCTCACTATTTATACGCGGCGACCTC
B2: SHOX -45G (rs1452787381 minor) (dsDNA)
DNA 1: GAGGTCGCCGCGTGTAAATAGTGAGA
DNA 2: TCTCACTATTTACACGCGGCGACCTC
B3: GTPBP6 -24G (rs1393008234 WT) (dsDNA)
DNA 1: ATCACGAGCACGTGATGAGGAGCGGC
DNA 2: GCCGCTCCTCATCACGTGCTCGTGAT
B4: GTPBP6 -24T (rs1393008234 minor) (dsDNA)
DNA 1: ATCACGAGCACGTTATGAGGAGCGGC
DNA 2: GCCGCTCCTCATAACGTGCTCGTGAT
B5: ASMT -30G (rs1402972626 WT) (dsDNA)
DNA 1: GGTGACCTTTTGTGCCCAGAATAGGT
DNA 2: ACCTATTCTGGGCACAAAAGGTCACC
B6: ASMT -30A (rs1402972626 minor) (dsDNA)
DNA 1: GGTGACCTTTTGTACCCAGAATAGGT
DNA 2: ACCTATTCTGGGTACAAAAGGTCACC
B7: ZFY -56C (WT) (dsDNA)
DNA 1: GGCGGAGGGGGCCCAACTACCATCCC
DNA 2: GGGATGGTAGTTGGGCCCCCTCCGCC
B8: ZFY -56T (minor) (dsDNA)
DNA 1: GGCGGAGGGGGCCTAACTACCATCCC
DNA 2: GGGATGGTAGTTAGGCCCCCTCCGCC
B9: CDY2A -24 WT (printed -24G, sequence has T) (dsDNA)
DNA 1: AGAATGTTCCATATAATCGTCATAGC
DNA 2: GCTATGACGATTATATGGAACATTCT
B10: CDY2A -24 minor (printed -24t, sequence has C) (dsDNA)
DNA 1: AGAATGTTCCATACAATCGTCATAGC
DNA 2: GCTATGACGATTGTATGGAACATTCT

Key:
TBP (Homo sapiens) = TBP (Homo sapiens) (UniProt P20226); conditions: cited from earlier work
[1] = molecular target: T1, TBP (TATA-binding protein) (human, UniProt P20226 1-339); test: EMSA; 2 nM TBP; Kd from association kinetics; EMSA with 2 nM TBP and varied ODN concentrations; Kd from reaction rates vs ODN concentration (GraphPad Prism 5); buffer, salt, pH and temperature not given in; conditions: protein: recombinant; blunt
T1 sequence (P20226 whole entry): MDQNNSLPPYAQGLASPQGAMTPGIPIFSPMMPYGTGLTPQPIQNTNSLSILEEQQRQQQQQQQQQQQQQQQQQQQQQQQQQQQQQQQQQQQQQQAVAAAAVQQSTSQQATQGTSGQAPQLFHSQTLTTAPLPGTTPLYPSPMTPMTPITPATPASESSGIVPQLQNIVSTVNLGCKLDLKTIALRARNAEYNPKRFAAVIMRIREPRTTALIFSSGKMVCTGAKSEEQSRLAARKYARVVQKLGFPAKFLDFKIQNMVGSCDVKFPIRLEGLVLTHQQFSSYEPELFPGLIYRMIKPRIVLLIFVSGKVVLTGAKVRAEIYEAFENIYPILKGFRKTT

[2] = molecular target: T1, TBP (TATA-binding protein); test: EMSA; 2 nM TBP; EMSA with 2 nM TBP and varied ODN concentrations; Kd from reaction rates vs ODN concentration (GraphPad Prism 5); buffer, salt, pH and temperature not given in; conditions: protein: recombinant; blunt

Molecule | Kd [2] | further results
TBP (from UniProt P20226) | – | Kd (TBP (Homo sapiens)): 4 nM
B1 | – | Kd [1]: 39 ± 7 nM
B2 | – | Kd [1]: 260 ± 70 nM
B3 | 1500 ± 200 nM | –
B4 | 1400 ± 200 nM | –
B5 | 600 ± 300 nM | –
B6 | 1000 ± 300 nM | –
B7 | 1000 ± 400 nM | –
B8 | 2000 ± 1000 nM | –
B9 | 160 ± 30 nM | –
B10 | 500 ± 200 nM | –
